The text below walks through data of doi:10.1101/2025.01.28.635281 (bioRxiv, 2025).

For this assay, the target named is T1, Bacillus subtilis Sfp (Surfactin synthetase activating enzyme, 4'-phosphopantetheinyl transferase) (Bacillus subtilis, UniProt P39135 1-224).
T1 sequence (looked up): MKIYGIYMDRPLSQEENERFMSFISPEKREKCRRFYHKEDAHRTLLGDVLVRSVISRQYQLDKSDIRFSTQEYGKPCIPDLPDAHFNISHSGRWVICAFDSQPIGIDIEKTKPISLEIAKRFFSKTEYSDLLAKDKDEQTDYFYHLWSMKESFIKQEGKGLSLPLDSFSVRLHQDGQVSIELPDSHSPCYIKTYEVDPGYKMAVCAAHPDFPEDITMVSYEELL
The assay is described as follows: NMR titration.

B1: S36A mutant of E. coli acyl carrier protein (natural protein)
chain: STIEERVKKIIGEQLGVKQEEVTNNASFVEDLGADALDTVELVMALEEEFDTEIPDEEAEKITTVQAAIDYINGHQA
On to B1, for which the binding result was “binds”.
